Reference: US20110207628A1 (UNIVERSITY OF MIAMI, published 2011)

Molecular target: T1, GST-tubby-F (GST fused to full-length mouse tubby) (Schistosoma japonicum; mouse, UniProt P50586 1-505)
T1 construct: mature; Expressed in E. coli BL21(DE3) from pGEX-2T; not shown: glutathione S-transferase of pGEX-2T (Schistosoma japonicum)
T1 sequence (looked up): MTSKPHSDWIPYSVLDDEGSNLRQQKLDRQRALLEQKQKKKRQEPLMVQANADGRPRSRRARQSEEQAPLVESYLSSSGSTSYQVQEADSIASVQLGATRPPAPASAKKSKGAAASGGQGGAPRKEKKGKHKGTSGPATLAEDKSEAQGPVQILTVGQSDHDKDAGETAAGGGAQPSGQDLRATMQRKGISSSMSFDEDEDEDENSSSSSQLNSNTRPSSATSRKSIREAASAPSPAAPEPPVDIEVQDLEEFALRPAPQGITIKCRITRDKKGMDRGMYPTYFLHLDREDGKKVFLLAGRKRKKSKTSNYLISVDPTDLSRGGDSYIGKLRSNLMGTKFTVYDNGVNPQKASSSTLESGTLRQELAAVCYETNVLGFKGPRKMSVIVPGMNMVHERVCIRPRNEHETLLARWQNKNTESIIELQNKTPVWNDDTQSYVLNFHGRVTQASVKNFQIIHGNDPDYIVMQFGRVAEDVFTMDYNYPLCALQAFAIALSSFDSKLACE
Assay: GST pull-down: GST-tubby with lysate of cells expressing the FLAG-tagged protein, glutathione resin, Western blot with anti-FLAG mAb

B1: FLAG-tagged Tulp3 (full-length mouse Tulp3 with N-terminal FLAG tag) (other)
chain: DYKDDDDKMEAARCAPGPRGDSAFDDETLRLRQLKLDNQRALLEKKQRKKRLEPLMVQPNPEARLRRLKPRGSEEHTPLVDPQMPRSDVILHGIDGPAAFLKPEAQDLESKPQVLSVGSPAPEEGTEGSADGESPEETAPKPDLQEILQKHGILSSVNYDEEPDKEEDEGGNLSSPSARSEESAAASQKAASETGASGVTAQQGDAQLGEVENLEDFAYSPAPRGVTVKCKVTRDKKGMDRGLFPTYYMHLEREENRKIFLLAGRKRKKSKTSNYLVSTDPTDLSREGESYIGKLRSNLMGTKFTVYDHGVNPVKAQGLVEKAHTRQELAAICYETNVLGFKGPRKMSVIIPGMNMNHERIPFRPRNEHESLLSKWQNKSMENLIELHNKAPVWNDDTQSYVLNFHGRVTQASVKNFQIVHGNDPDYIVMQFGRVADDVFTLDYNYPLCALQAFAIGLSSFDSKLACE
notes: mature; Expressed from pcDNA3 in Neuro-2a cells; used as cell lysate or on membrane vesicles
B1: no binding.
